Measurements: paper PMC2064615

Biological target: taxol-stabilized microtubules polymerized from tubulin purified from bovine brain (bovine)
Assay: co-sedimentation

Binder	stoichiometry N (tubulin heterodimers per emerin)
His-tagged recombinant emerin peptide corresponding to aa 73–180 (domain or fragment) MYDLPKKEDALLYQSKGYNDDYYEESYFTTRTYGEPESAGPSRAVRQSVTSFPDADAFHHQVHDDDLLSSSEEECKDRERPMYGRDSAYQSITHYRPVSASRSSLDLS	24
emerin peptide aa 1–176 (most of the nucleoplasmic domain) (domain or fragment) MDNYADLSDTELTTLLRRYNIPHGPVVGSTRRLYEKKIFEYETQRRRLSPPSSSAASSYSFSDLNSTRGDADMYDLPKKEDALLYQSKGYNDDYYEESYFTTRTYGEPESAGPSRAVRQSVTSFPDADAFHHQVHDDDLLSSSEEECKDRERPMYGRDSAYQSITHYRPVSASRSS	8
